Ends that are not written are not given here. * marks the point of attachment. Biotin = O=C1N[C@H]2[C@H](CS[C@H]2CCCCC(=O)*)N1
Biological target: GST–BRCA1–BRCT (UniProt P38398 1582-1863)
Experiment: pull-down

Sequence of GST–BRCA1–BRCT (P38398 1582-1863): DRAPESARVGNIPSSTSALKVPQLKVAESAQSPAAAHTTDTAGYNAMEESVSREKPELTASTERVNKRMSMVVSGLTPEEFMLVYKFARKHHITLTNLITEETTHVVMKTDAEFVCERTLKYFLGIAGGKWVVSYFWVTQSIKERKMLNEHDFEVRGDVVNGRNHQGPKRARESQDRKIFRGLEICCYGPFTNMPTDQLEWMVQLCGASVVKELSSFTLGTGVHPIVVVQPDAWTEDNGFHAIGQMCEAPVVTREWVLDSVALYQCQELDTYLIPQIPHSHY

Biotin-KHDAIMDGASPDYVLV [biotinylated CSB peptide without S1276 phosphorylation]: binds.
